Data published in patent US20030036169A1.

B1: Mint 2 (protein)
chain: MAHRKRQSTASSMLDHRARPGPIPHDQEPENEDTELPLESYVPTGLELGTLRPDSPTPEEQECHNHSPDGDSSSDYVNNTSEEEDYDEGLPEEEEGVTYYIRYCPEDDSYLEGMDCNGEEYLAHGAHPVDTDECQEAVEDWTDSVGPHTHSHGAENSQEYPDSHLPIPEDDPTVLEVHDQEEDGHYCPSKESYQDYYPPETNGNTGGASPYRMRRGDGDLEEQEEDIDQIVAEIKMSLSMTSITSASEASPEHMPELDPGDSTEACSPSDTGRGPSRQEARPKSLNLPPEVKHSGDPQRGLKTKTRTPEERPKWPQEQVCNGLEQPRKQQRSDLNGPTDNNNIPETKKVASFPSFVAVPGPCEPEDLIDGIIFAANYLGSTQLLSERNPSKNIRMMQAQEAVSRVKRMQKAAKIKKKANSEGDAQTLTEVDLFISTQRIKVLNADTQETMMDHALRTISYIADIGNIVVLMARRRMPRSASQDCIETTPGAQEGKKQYKMICHVFESEDAQLIAQSIGQAFSVAYQEFLRANGINPEDLSQKEYSDIINTQEMYNDDLIHFSNSENCKELQLEKHKGEILGVVVVESGWGSILPTVILANMMNGGPAARSGKLSIGDQIMSINGTSLVGLPLATCQGIIKGLKNQTQVKLNIVSCPPVTTVLIKRPDLKYQLGFSVQNGIICSLMRGGIAERGGVRVGHRIIEINGQSVVATAHEKIVQALSNSVGEIHMKTMPAAMFRLLTGQETPLYI
B2: Mint 3 (protein, rat, UniProt O70248 1-569, looked up)
chain: MEFLPEPQHPPGPPTMDLEEPKGPEVPSEDHPSNTQWALGPRGPDTLSEMELDTSSVRALVQQLEALPSDLGGQFPDGAPCPLHIATGQGLATQENLDAGGLLSAEAGGDNLLGLLRCEASLPAQSVPPDPAQAAPRLLQPPEDPGGDPGWMEGTEPADNRSSSSSPELWLETAPLVTHRDPPVGTQSQETLASCPAVSEVPGPCGQEELMDGVLFGAKYLGSTQLLSERNPPPSTRMGQAQEAMDRVKAPEGETQPMTEVDIFISTKRVKVLAADSQDALMDHALQTISYIADIGPVLVLMARRRLAKRTTSQDRQRQLYKMLCHVFHSEDAQLIAQAIGQAFSIAYSQFLQENRIDPSQVGMQPSASASHPHNGDLDHFCNSQNCREVCIQKRPGEGLGVALVESGWGSLLPTAVIANLLHGGPAERCGALSIGDRVTAINGTSLVGLSLAACQAAVREVRRHSSVTLSIIHCPPVTTAVIHRPHVREQLGFCVENGIICSLLRGSAAERGGVRVGHRIIEVNGQSVVAMPHARIIQLLTETREIHIKTMPAATYRLLTGQEQPVYL
B3: Mint 1 (protein)
chain: MNHLEGSAEVEVADEAPGGEVNESVEADLEHPEVEEEQQPSPPPPAGHAPEDHRAHPAPPPPPPPQEEEEERGECLARSASTESGFHNHTDTAEGDVLAAARDGYEAERAQDADDESAYAVQYRPEAEEYTEQAEAEHAEAAQRRALPNHLHFHSLEHEEAMNAAYSGYVYTHRLFHRAEDEPYAEPYADYGGLQEHVYEEIGDAPELEARDGLRLYERERDEAAAYRQEALGARLHHYDERSDGESDSPEKEAEFAPYPRMDSYEQEEDIDQIVAEVKQSMSSQSLDKAAEDMPEAEQDLERAPTPGGGHPDSPGLPAPAGQQQRVVGTPGGSEVGQRYSKEKRDAISLAIKDIKEAIEEVKTRTIRSPYTPDEPKEPIWVMRQDISPTRDCDDQRPVDGDSPSPGSSSPLGAESSITPLHPGDPTEASTNKESRKSLASFPTYVEVPGPCDPEDLIDGIIFAANYLGSTQLLSDKTPSKNVRMMQAQEAVSRIKTAQKLAKSRKKAPEGESQPMTEVDLFISTQRIKVLNADTQEPMMDHPLRTISYIADIGNIVVLMARRRMPRSNSQENVEASHPSQDAKRQYKMICHVFESEDAQLIAQSIGQAFSVAYQEFLRANGINPEDLSQKEYSDLLNTQDMYNDDLIHFSKSENCKDVFIEKQKGEILGVVIVESGWGSILPTVIIANMMHGGPAEKSGKLNIGDQIMSINGTSLVGLPLSTCQSIIKGLKNQSRVKLNIVRCPPVTTVLIRRPDLRYQLGFSVQNGIICSLMRGGIAERGGVRVGHRIIEINGQSVVATPHEKIVHILSNAVGEIHMKTMPAAMYRLLTAQEQPVYI

target: APP695 (human) (UniProt P05067); assay: cell-based or functional assay

steady-state levels of transfected APP695 in HEK293 cells (quantitative immunoblot), < 3 fold:
B1
B2
B3
